Measurements from patent US20250313612A1 (Adimab, published 2025).

B1: ADI-14485 (antibody, V domains shown)
VH: EVQLVESGAEVKRPGSSVKVSCKVVGGSFSNYAISWVRQAPGQGPEYLGGIIPAFRTAKYAKKFQDRLTITADESTSTAYMEMRGLTSDDTGLYYCARPEGDFGDLKWLRSPFDYWGQGTLVTVSS
VL: EIVLTQSPATLSVSPGQRVTLSCRASQGVSINLAWYQQKPGQPPRLLIYGASTRATDIPARFSGSGSGTDFTLTISSLQSEDFAVYYCQQYDDWPPQLTFGPGTKLEIK
notes: full-length IgG (yeast-expressed); also called Antibody Number 46; Ab# 46
B2: ADI-14555 (antibody, V domains shown)
VH: QVQLVQSGGGLVQPGGSLRLSCAASGLTFSSYAMSWVRQAPGKELEWVSSISESGVDTYYADSVKGRFTVSRDNSKSTLYLQMSSLGGDDTAVYYCAKAYCSNKACHGGYFDYWGQGTLVTVSS
VL: ETTLTQSPDTLSLSPGERATLSCRASQSVRNYLAWYRQKPGQAPRLLIYDASNLATGIPARFSGSGSGTDFTLTISSLEPEDFAVYYCHQRSDWPLTFGPGTKVEIK
B3: ADI-14548 (antibody, V domains shown)
VH: EVQLVESGGGLVQPGGSLRLSCAASGFSFSTSWMSWVRQAPGKGLEWLANIKEDGSKKIYVDSVKGRFSISRDNAKNSLYLQMTSLRAEDTAVYYCARDVWGWELVGWLDPWGQGTLVTVSS
VL: SYELTQPPSVSVAPGKTASITCGGSNIGSRSVHWYQQKPGQAPVLVVYEDHDRPSGIPERFSGSNSGNTATLTISRVEAGDEADYYCQVWDSSRDHVVFGGGTKVTVL
B4: ADI-14470 (antibody, V domains shown)
VH: QVTLKESGPALVKPTETLTLTCTFSGFSLSTKRLSVSWIRQPPGKALEWLARIDWDDDKSYSTSLRTRLTIAKDTSKNQVVLTMTNMGPADTATYFCVRSSVYASNAYYLYYFDSWGQGTLVTVSS
VL: DIRMTQSPSSLSASVGDRVTITCRASQSIATYLNWYQHKPGKAPTLLIYAASILHSGVPPRFSGRASGTDFTLTISSLQPEDFATYYCQQAYSSPYTFGQGTKVDIK
notes: full-length IgG (yeast-expressed); also called Antibody Number 33; Ab# 33
B5: ADI-14543 (antibody, V domains shown)
VH: QVQLVQSGAEVKKPGSSVKVSCKASGDTFSSYAISWVRQAPGQGLEWMGGVLPMLGTANYAQRFRGRVTLTADGSTNTAYMEMSSLRLDDTAVYYCARVAGLGNSYGRYPDLWGQGTLVTVSS
VL: DIVMTQSPSSLSASVGDRVTITCRASQGISSSLAWYQQKPGKAPELLIYAASSLHSGVPSRFRGSGSGTDFTLTISSVQPEDFATYYCQQANSFPYTFGQGTKLEIK
B6: ADI-14545 (antibody, V domains shown)
VH: EVQLVESGGGLVKPGGSLRLSCAASGFTFSNAWMSWVRQAPGKGLEWVGRVKSKSKGGTTHYAEAVKGRFTISRDDSKNTLYLQMQSLKTEDTAVYYCTSHAYNSDWFVTTDYYYYMDVWGKGTTVTVSS
VL: DIVLTQSPSSLSASVGDRVTFTCRASQSISNYLNWYQQKPGKAPKVLIYGASNLLSGVPSRFIGSGSGTDFTLTINSLQPEDFATYYCQQCYSAPITFGQGTRLEIK
B7: ADI-14469 (antibody, V domains shown)
VH: QVQLVESGPTLVKPTQTLTLTCTFSGFSLTTRGVGVGWVRQPPGKALEFLGLTHWDDDKIYSPSLRRRLTITKDTSKNQVVLALANVDPVDTATYFCVKSDLYDRGGYYLYYFDYWGQGTLVTVSS
VL: EIVLTQSPSSLSASVGDRVTITCRASQTIPSYVNWYLQRPGEAPKLLIYGASNLHTGAPPTFIGRGSGADFTLTINTLQPEHFGTYYCQQTFSSPYTFGQGTKVEIK
notes: full-length IgG (yeast-expressed); also called Antibody Number 32; Ab# 32
B8: ADI-14475 (antibody, V domains shown)
VH: QVQLVQSGPALVKPTQTLTLTCTFSGFSLTTARMCVSWIRQPPGKALEWLARIDWDDDKSYSTSLKTRLTIAKDTSKNQVVLTMTNMGPADTATYYCVRTPIYASGGYYLSYFDSWGQGTLVTVSS
VL: DIVMTQSPSSLSASVGDSVTITCRASQTIASYVNWYQHKPGQAPNLLIYAASILHSGVPSRFRGGGSGTDFTLTINSLQPEDFATYYCQQSYSTPYTFGQGTKVDIK
notes: full-length IgG (yeast-expressed); also called Antibody Number 37; Ab# 37
B9: ADI-14533 (antibody, V domains shown)
VH: QVQLVQSGAEVKKPGSSVIISCKASGGTFRNYGFTWVRQAPGQGLEWLGGIIPMFETVRYAQKFQGRVTITADENTNTAFLAVSSLRSEDTGVYFCARDLQTGIMSSVRSEYRGFMDPWGQGTLVTVSS
VL: QSVLTQPPSVSGAPRQRVTISCSGSSSNIGTNAVNWYQQLPGKSPKVLIYYDELVPSGVSDRFSGSRSGTSASLAISGLRSEDEAYYYCAAWDDSLNGWVFGGGTQLTVL
B10: ADI-14542 (antibody, V domains shown)
VH: QVQLVQSGAEVKKPGESLKISCKGSGYVFSSYWVAWVRQMPGKGLEWMGIIYPHDSDTRYSPAFQGQVTISADKSINTAYLQWSSLKASDTAMYYCTIILIPAPIRAPDGFDIWGQGTTVTVSS
VL: NFMLTQPHSVSESPGKTVTISCTGSGGTIASNYVQWYQQRPGSVPTTVIYENNERPSGVPDRFSGSIDRSSNSASLTISGLKTEDEADYYCQSYDSSYHVVFGGGTKVTVL
B11: ADI-14541 (antibody, V domains shown)
VH: EVQLVESGGGLVRPGGSLRLSCAASGFAFSSYSLHWVRQAPGRGLEWVASISAGSSFTDYAASVRGRFTISRNIANSLYLQMNRLRAEDTAVYYCARVIGDGTILGVVF
VL: QSVLTQPPSVSGAPGQRVTISCTGGRSNIGAGYDVHWYQQLPGTAPKLLIYGNINRPSGVPDRFSGSKSGTSASLAITGLLAEDEADYYCQSYDSSLSVIFGGGTKLTVL
B12: ADI-14540 (antibody, V domains shown)
VH: QVQLVESGGGVVQPGRSLRLSCAASGFTFTDYAMHWVRQAPGKGLQWVALISYNGRIQYYADSVKGRFTISRDDSKNTLYLQMNSLRAGDTAVYYCARDGDLVAVPAAIGFDSWGQGTLVTVSS
VL: DIQVTQSPDSLAVSLGERATINCKSSQSVLYTSNNKNYLAWYQQKSRQPPKLLIYWASTRESGVPERFSGSGSGTDFTLTISSLQAEDVAVYYCQQYSSPPYTFGQGTKVEIK
B13: ADI-14550 (antibody, V domains shown)
VH: QVQLVQSGGGVVQPGRSLRLSCAASGFTFSDYAMHWVRQAPGKGLQWVSLISYNGRKKYYADSVKGRFTISRDDSKNTLYLQMNPLRPDDTAVYYCARDGDIVAVPAAIGLDYWGQGTLVTVSS
VL: DIVLTQSPESLAVSLGERATINCNSSQSVLYTSNNKNYLAWYQQKSGQPPKLLIYWASTRESGVPERFSGSGSGTDFTLTISSLQAEDVAVYYCQQYSSPPYTFGQGTKLEIK
B14: ADI-14476 (antibody, V domains shown)
VH: QVQLVESGPTLVKPTQTLSLTCTFSGFSLTTRGVGVGWIRQPPGKALEWLGFTYWDGDDRYSPSLRNRVSIAKDTSKNQVVLTLTNMDPVDTATYFCVHSDRYDRGGYYLYFFDYWGPGTLVTVSS
VL: DIRVTQSPSSLSASVGDRVSISCRASQTIASYVNWYQQRPGKAPQLLIFAASHLQTGVPSRFSGRGSGTDFTLTITSLQPEDFATYYCQQSYTSPYTFGQGTKVEIK
notes: full-length IgG (yeast-expressed); also called Antibody Number 38; Ab# 38
B15: ADI-14477 (antibody, V domains shown)
VH: EVQLVESGPTLVKPTQTLTLTCSLSGFSLTTRGVGVGWIRQPPGKAPECLGFVYWDDDNRYSPSLRGRLTISKDTSKNQVVLTLTNMDPLDTATYYCVHSDLYDRGGYYLFYFDDWGQGTLVTVSS
VL: DIQVTQSPSSLSASVGDRVTITCRASQPIASYLNWYQQKPGQAPKLLIYAASMLQSGAPSKFSGRGSGTDFTLTITTLQPEDFATYYCQQSYTFPYTFGQGTKVEIK
notes: full-length IgG (yeast-expressed); also called Antibody Number 39; Ab# 39
B16: ADI-14544 (antibody, V domains shown)
VH: QVQLVQSGAEVKKPGESLKISCKGAGFGSTNSWIGWVRQMPGKGLEWMGVIFPGDSDTKYSPTFQGQVTISVDKSINTAYLQWSSLKASDTAIYYCARMLASVGLSNFDAWGQGTLVTVSS
VL: QPVLTQPPSVSLAPGKTATITCGGNNIGGKSVHWYQQKPGQAPVLVIDYDSDRPSGIPERFSGSNSGNTATLTINRVEAGDEADYYCQVWDSISDHVLFGGGTKLTVL

Experiments:
[1] = molecular target: T1, RSV F ectodomain stabilized in the postfusion conformation (F ΔFP), subtype B (Respiratory syncytial virus subtype B, UniProt P13843 26-109; P13843 147-524); assay: BLI, IgG on AHQ sensor, 100 nM antigen
T1 construct: extracellular domain; trimer; also called Postfusion subtype B; postF subtype B

[2] = molecular target: T2, RSV F ectodomain stabilized in the postfusion conformation (F ΔFP), subtype A (Respiratory syncytial virus subtype A, UniProt P03420 26-109; P03420 147-524); assay: BLI, IgG on AHQ sensor, 100 nM antigen
T2 construct: extracellular domain; trimer; furin-cleaved; also called Postfusion subtype A

[3] = molecular target: RSV F protein of recombinant mKate-RSV, subtype B (18537) (Respiratory syncytial virus subtype B …, UniProt P13843 26-574); assay: cell-based or functional assay
[4] = molecular target: RSV F protein of recombinant mKate-RSV, subtype A (strain A2) (Respiratory syncytial virus subtype A …, UniProt P03420 26-574); assay: cell-based or functional assay
[5] = molecular target: RSV F protein of subtype B (18537) on recombinant mKate-RSV (Respiratory syncytial virus subtype B …, UniProt P13843 26-574); assay: cell-based or functional assay
[6] = molecular target: RSV F protein of subtype A (strain A2) on recombinant mKate-RSV (Respiratory syncytial virus subtype A …, UniProt P03420 26-574); assay: cell-based or functional assay

| Binder | Kd [1] | Kd [2] | Neut IC50 subtype B [3] | Neut IC50 subtype A [4] | Neut IC50 (µg/ml) subtype B [5] | Neut IC50 (µg/ml) subtype A [6] |
| --- | --- | --- | --- | --- | --- | --- |
| B1 | 0.642 nM | 1.52 nM | 2.81 µg/mL | > 10 µg/mL |  |  |
| B2 |  |  |  |  | > 10 µg/mL | > 10 µg/mL |
| B3 |  |  |  |  | 0.094 µg/mL | 0.034 µg/mL |
| B4 | 0.314 nM | 0.358 nM | 0.473 µg/mL | 0.226 µg/mL |  |  |
| B5 |  |  |  |  | > 10 µg/mL | > 10 µg/mL |
| B6 |  |  |  |  | 0.073 µg/mL | 0.036 µg/mL |
| B7 | 2.9 nM | 0.301 nM | 0.013 µg/mL | 0.05 µg/mL |  |  |
| B8 | 0.242 nM | 0.299 nM | 0.522 µg/mL | 0.391 µg/mL |  |  |
| B9 |  |  |  |  | 0.442 µg/mL | > 10 µg/mL |
| B10 |  |  |  |  | 4.3 µg/mL | 0.008 µg/mL |
| B11 |  |  |  |  | 0.106 µg/mL | 0.023 µg/mL |
| B12 |  |  |  |  | > 10 µg/mL | > 10 µg/mL |
| B13 |  |  |  |  | > 10 µg/mL | 2.62 µg/mL |
| B14 | 9.12 nM | 0.827 nM | 2.19 µg/mL | 0.929 µg/mL |  |  |
| B15 | 1.22 nM | 0.361 nM | > 10 µg/mL | > 10 µg/mL |  |  |
| B16 |  |  |  |  | > 10 µg/mL | > 10 µg/mL |
